The record followed here is PMC3910116, “Super Spy variants implicate flexibility in chaperone action” (eLife, 2014).

Substitutions are numbered along the chain they refer to. In names and notes the source's numbering stands.

What all share (conditions): both partners purified
In assay [1] the target is T1, N-terminal strep-tagged Spy (E. coli, UniProt P77754 24-161).
T1 construct: Spy, E. coli; Probably the mature protein behind the tag; not shown: Strep tag, N-terminal, kept
T1 sequence (looked up): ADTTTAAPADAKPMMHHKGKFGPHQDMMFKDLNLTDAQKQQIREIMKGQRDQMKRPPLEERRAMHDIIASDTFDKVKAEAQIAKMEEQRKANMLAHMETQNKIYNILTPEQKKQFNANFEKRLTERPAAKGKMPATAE
In words: pull-down; tryptic fragments of Im7 L53A I54A mixed with N-terminal strep-tagged Spy, strep-tactin sepharose column, eluted with 2.5 mM desthiobiotin, fragments identified by LC/MS.

In assay [2] the target is T2, Spy F115L (E. coli, UniProt P77754 24-161, F115L).
T2 construct: N-terminal serine from the Sumo fusion construct; the footnote says it of Spy purification in general; Spy, E. coli, mature protein; numbers count on: the mature protein; Variant of m1 found by genetic selection, remade by site-directed mutagenesis; also called super-Spy variant; source: purified; not shown: SUMO, N-terminal, cleaved (from the N-terminal serine said of Spy purification in general)
T2 sequence: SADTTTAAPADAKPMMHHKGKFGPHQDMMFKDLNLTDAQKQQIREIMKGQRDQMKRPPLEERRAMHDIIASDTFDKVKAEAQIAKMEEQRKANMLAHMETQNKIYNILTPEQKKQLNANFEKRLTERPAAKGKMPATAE
In words: BLI; biotinylated Im7 L53A I54A immobilised on streptavidin sensors (Octet RED); Spy variants at 2, 1, 0.5, 0.25 and 0.125 µM; 25°C; 40 mM HEPES, 150 mM NaCl, pH 7.5; 1:1 binding model, KD = koff/kon; apparent. (In general: BLI is a label-free optical method that tracks binding on a fibre tip over time.)

Assay [3] addresses T3, Spy (wild type) (E. coli, UniProt P77754 24-161).
T3 construct: N-terminal serine introduced from the Sumo fusion construct used for purification; numbers count on: the mature protein; construct as in Quan et al., 2011; also called WT; wild-type Spy; source: purified from a Sumo fusion construct (Quan et al., 2011); not shown: SUMO, N-terminal, cleaved (from the N-terminal serine left on the protein)
T3 sequence: T2 sequence with L116F
The description is as above.

Assay [4] addresses T4, Spy H96L (E. coli, UniProt P77754 24-161, H96L).
T4 construct: N-terminal serine from the Sumo fusion construct; the footnote says it of Spy purification in general; Spy, E. coli, mature protein; numbers count on: the mature protein; Variant of m1 found by genetic selection, remade by site-directed mutagenesis; also called super-Spy variant; source: purified; not shown: SUMO, N-terminal, cleaved (from the N-terminal serine said of Spy purification in general)
T4 sequence: T2 sequence with H97L, L116F
The description is as above.

The target in assay [5] is T5, Spy L32P (E. coli, UniProt P77754 24-161, L32P).
T5 construct: N-terminal serine from the Sumo fusion construct; the footnote says it of Spy purification in general; Spy, E. coli, mature protein; numbers count on: the mature protein; Variant of m1 found by genetic selection, remade by site-directed mutagenesis; also called super-Spy variant; source: purified; not shown: SUMO, N-terminal, cleaved (from the N-terminal serine said of Spy purification in general)
T5 sequence: T2 sequence with L33P, L116F
The assay is described as above.

The target in assay [6] is T6, Spy Q25R (E. coli, UniProt P77754 24-161, Q25R).
T6 construct: N-terminal serine from the Sumo fusion construct; the footnote says it of Spy purification in general; Spy, E. coli, mature protein; numbers count on: the mature protein; Variant of m1 found by genetic selection, remade by site-directed mutagenesis; also called super-Spy variant; source: purified; not shown: SUMO, N-terminal, cleaved (from the N-terminal serine said of Spy purification in general)
T6 sequence: T2 sequence with Q26R, L116F
The assay is described as above.

The target of assay [7] is T7, Spy F115I (E. coli, UniProt P77754 24-161, F115I).
T7 construct: N-terminal serine from the Sumo fusion construct; the footnote says it of Spy purification in general; Spy, E. coli, mature protein; numbers count on: the mature protein; Variant of m1 found by genetic selection, remade by site-directed mutagenesis; also called super-Spy variant; source: purified; not shown: SUMO, N-terminal, cleaved (from the N-terminal serine said of Spy purification in general)
T7 sequence: T2 sequence with L116I
The description is as above.

Assay [8] has as its target T8, Spy Q100L (E. coli, UniProt P77754 24-161, Q100L).
T8 construct: N-terminal serine from the Sumo fusion construct; the footnote says it of Spy purification in general; Spy, E. coli, mature protein; numbers count on: the mature protein; Variant of m1 found by genetic selection, remade by site-directed mutagenesis; also called super-Spy variant; source: purified; not shown: SUMO, N-terminal, cleaved (from the N-terminal serine said of Spy purification in general)
T8 sequence: T2 sequence with Q101L, L116F
The description is as above.

Assay [9] addresses T9, Spy Q49L (E. coli, UniProt P77754 24-161, Q49L).
T9 construct: N-terminal serine from the Sumo fusion construct; the footnote says it of Spy purification in general; Spy, E. coli, mature protein; numbers count on: the mature protein; Variant of m1 found by genetic selection, remade by site-directed mutagenesis; also called super-Spy variant; source: purified; not shown: SUMO, N-terminal, cleaved (from the N-terminal serine said of Spy purification in general)
T9 sequence: T2 sequence with Q50L, L116F
The assay is described as above.

In assay [10] the target is T3, Spy (wild type). The assay can be described thus: ITC; Spy with full length Im7 L53A I54A or purified Im7 peptides; conditions and who was titrated not told.
Assay [11] concerns the target T2, Spy F115L. The assay can be described thus: HDX-MS; top-down ECD-FTICR-MS; 25 µM Spy (dimer) and 100 µM Im7 peptide (1:4), 10 mM ammonium acetate, 80% D2O, labelling time 10 s.
Assay [12] addresses T4, Spy H96L. Described as above.
In assay [13] the target is T5, Spy L32P. The assay is described as above.
The target in assay [14] is T6, Spy Q25R. Described as above.
Assay [15] has as its target T7, Spy F115I. Described as above.
The target of assay [16] is T8, Spy Q100L. The assay is described as above.
Assay [17] deals with T9, Spy Q49L. The description is as above.

B1: Im7 L53A I54A tryptic fragment 5–76 (domain or fragment, UniProt Q03708 5-76, looked up)
chain: NSISDYTEAEFVQLLKEIEKENVAATDDVLDVLLEHFVKITEHPDGTDAAYYPSDNRDDSPEGIVKEIKEWR
notes: immunity protein 7 (Im7), residues 5-76; source: limited proteolysis of Im7 L53A I54A with trypsin
In the case of B1, the binding result in [1] is on record as “binds”.

B2: Im7 L53A I54A tryptic fragment 5–70 (domain or fragment, UniProt Q03708 5-70, looked up)
chain: NSISDYTEAEFVQLLKEIEKENVAATDDVLDVLLEHFVKITEHPDGTDAAYYPSDNRDDSPEGIVK
notes: immunity protein 7 (Im7), residues 5-70; source: limited proteolysis of Im7 L53A I54A with trypsin
B2: the binding result in assay [1] is “binds”.

B3: Im7 L53A I54A tryptic fragment 5–43 (peptide, UniProt Q03708 5-43, looked up)
chain: NSISDYTEAEFVQLLKEIEKENVAATDDVLDVLLEHFVK
notes: immunity protein 7 (Im7), residues 5-43; most of the α1 and α2 helices; source: limited proteolysis of Im7 L53A I54A with trypsin
With B3, in assay [1], the binding result was “binds”.

B4: Biotinylated Im7 L53A I54A (natural protein)
chain: SMELKNSISDYTEAEFVQLLKEIEKENVAATDDVLDVLLEHFVKITEHPDGTDAAYYPSDNRDDSPEGIVKEIKEWRAANGKPGFKQG
modifications: biotin (EZ-link NHS-biotin at 1:1 molar ratio; site not stated)
notes: N-terminal serine from the Sumo fusion construct; the footnote says it of Im7 purification in general; immunity protein 7 (Im7), colicin E7 immunity protein; Same protein as m10 with biotin; held on streptavidin sensors; also called biotin-conjugated Im7 L53A I54A; immunity protein 7 L53A I54A; source: purified from a Sumo fusion construct (Quan et al., 2011), biotinylated with EZ-link …
One may read the koff as the rate constant with which the complex falls apart. Take B4: the Kd came to 900 nM in assay [2]; 1150 nM in assay [3]; 1000 nM in [4]; 200 nM in assay [5]; 870 nM in [6]; 1170 nM in assay [7]. Further, the Kd in assay [8] is 230 nM; in assay [9], 760 nM. In addition, the off-rate constant (koff) in assay [2] was found to be 0.245 s⁻¹; in [3], 0.456 s⁻¹; in [4] it was 0.266 s⁻¹; in assay [5], 0.03 s⁻¹; in [6], 0.198 s⁻¹; in [7], 0.328 s⁻¹. The koff in [8] is 0.027 s⁻¹; in assay [9] it was 0.176 s⁻¹.

B5: Im7 7-45 peptide (peptide)
chain: SISDYTEAEFVQLLKEIEKENVAATDDVLDVLLEHFVKIT
notes: N-terminal serine introduced from the Sumo fusion construct; immunity protein 7 (Im7), residues 7-45; Called a 40-amino acid peptide: 39 residues of Im7 and the N-terminal serine; An equimolar mixture of unlabelled and 15N-labelled peptide was used for PICUP and EDC; also called Im7 L53A I54A 7-45 peptide; source: expressed in vivo as a Sumo fusion construct, purified; not shown: SUMO, …
In the case of B5, the Kd in assay [10] was 2600 nM. For the same molecule, the binding result in assay [11], in assay [12], in assay [13], in assay [14], in assay [15] and in assay [16] was “binds” in each case. Moreover, the binding result in assay [17] is “binds”.

B6: Im7 L53A I54A (natural protein)
chain: B4 chain
notes: N-terminal serine from the Sumo fusion construct; the footnote says it of Im7 purification in general; immunity protein 7 (Im7), colicin E7 immunity protein; also called full length Im7 L53A I54A; immunity protein 7 L53A I54A; source: purified from a Sumo fusion construct (Quan et al., 2011); not shown: SUMO, N-terminal, cleaved (from the N-terminal serine said of Im7 purification in general)
B6 gave a Kd in assay [10] of 2500 nM.

B7: Im7 12-45 peptide (peptide)
chain: SEAEFVQLLKEIEKENVAATDDVLDVLLEHFVKIT
notes: N-terminal serine from the Sumo fusion construct; the footnote says it of Im7 purification in general; immunity protein 7 (Im7), residues 12-45; source: expressed in vivo, purified; not shown: SUMO, N-terminal, cleaved (from the N-terminal serine said of Im7 purification in general)
In assay [10], B7 registered a Kd of 8000 nM.

B8: Im7 3-45 peptide (peptide)
chain: SLKNSISDYTEAEFVQLLKEIEKENVAATDDVLDVLLEHFVKIT
notes: N-terminal serine from the Sumo fusion construct; the footnote says it of Im7 purification in general; immunity protein 7 (Im7), residues 3-45; source: expressed in vivo, purified; not shown: SUMO, N-terminal, cleaved (from the N-terminal serine said of Im7 purification in general)
Take B8: in assay [10], the Kd is 2300 nM.

B9: Im7 L53A I54A tryptic fragment 5–73 (domain or fragment, UniProt Q03708 5-73, looked up)
chain: NSISDYTEAEFVQLLKEIEKENVAATDDVLDVLLEHFVKITEHPDGTDAAYYPSDNRDDSPEGIVKEIK
notes: immunity protein 7 (Im7), residues 5-73; source: limited proteolysis of Im7 L53A I54A with trypsin
Take B9: the binding result in assay [1] is on record as “binds”.
